B1: MYL5 (parent)
chain: DVAGNLDYKALSYVITHGEEKEE

Variants of: B1
Experiment: protein stability index of a GFP-peptide fusion (GPS, HEK-293T) (PSI 1-6); higher = more stable
Details: c terminus: native
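Also: lentivirally expressed fusions sorted by FACS into six bins by GFP to DsRed ratio, PSI derived from sequencing read proportions per bin multiplied by bin number.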

Variant | protein stability index
DVAGNLDYKALSYVINHGEEKEE [T16N] | 3.03
DVAGNLDYKALSYVIWHGEEKEE [T16W] | 2.48
DVAGNLDYKALSYVIEHGEEKEE [T16E] | 1.99
DVAGNLDYKALSYVICHGEEKEE [T16C] | 1.53
DVAGNLDYKALSYVIQHGEEKEE [T16Q] | 2.56
DVAGNLDYKALSYVILHGEEKEE [T16L] | 1.27
DVAGNLDYKALSYVIKHGEEKEE [T16K] | 2.65
DVAGNLDYKALSYVIFHGEEKEE [T16F] | 3.87
DVAGNLDYKALSYVITHGEEKVE [E22V] | 4.09
DVAGNLDYKALSYVITHGEEKYE [E22Y] | 4.13
DVAGNLDYKALSYVITHGEEKGE [E22G] | 4.27
DVAGNLDYKALSYVITHGEEKME [E22M] | 4.25
DVAGNLDYKALSYVITHGEEKIE [E22I] | 4.14
DVAGNLDYKALSYVITHGEEKRE [E22R] | 4.24
DVAGNLDYKALSYVITHGEEKPE [E22P] | 4.22
DVAGNLDYKALSYVITHGEEKSE [E22S] | 4.46
DVAGNLDYKALSYVITHGEEKWE [E22W] | 3.59
DVAGNLDYKALSYVITHGEEKKE [E22K] | 5.21
DVAGNLDYKALSYVITHGEEKCE [E22C] | 4.34
DVAGNLDYKALSYVITHGEEKAE [E22A] | 4.23
DVAGNLDYKILSYVITHGEEKEE [A10I] | 2.24
DVAGNLDYKWLSYVITHGEEKEE [A10W] | 4.9
DVAGNLDYKPLSYVITHGEEKEE [A10P] | 2.28
DVAGNLDYKQLSYVITHGEEKEE [A10Q] | 2
DVAGNLDYKGLSYVITHGEEKEE [A10G] | 2.1

Variant | protein stability index
DVAGNLDYKKLSYVITHGEEKEE [A10K] | 3.21
DVAGNLDYKNLSYVITHGEEKEE [A10N] | 2.48
DVAGNLDYKYLSYVITHGEEKEE [A10Y] | 1.22
DVAGNLDYKELSYVITHGEEKEE [A10E] | 2.35
DVAGNLDYKDLSYVITHGEEKEE [A10D] | 2.09
DVAGNLDYKAISYVITHGEEKEE [L11I] | 1.93
DVAGNLDYKANSYVITHGEEKEE [L11N] | 2.23
DVAGNLDYKAPSYVITHGEEKEE [L11P] | 2.45
DVAGNLDYKASSYVITHGEEKEE [L11S] | 1.36
DVAGNLDYKAASYVITHGEEKEE [L11A] | 2.56
DVAGNLDYKATSYVITHGEEKEE [L11T] | 2.81
DVAGNLDYKAKSYVITHGEEKEE [L11K] | 2.08
DVAGNLDYKAHSYVITHGEEKEE [L11H] | 2.75
DVAGNLDYKAGSYVITHGEEKEE [L11G] | 2.48
DVAGNLDYKALSYNITHGEEKEE [V14N] | 3.53
DVAGNLDYKALSYKITHGEEKEE [V14K] | 2.5
DVAGNLDYKALSYTITHGEEKEE [V14T] | 2.14
DVAGNLDYKALSYGITHGEEKEE [V14G] | 2.28
DVAGNLDYKALSYSITHGEEKEE [V14S] | 2.31
DVAGNLDYKALSYCITHGEEKEE [V14C] | 2.07
DVAGNLDYKALSYFITHGEEKEE [V14F] | 2.25
DVAGNLDYKALSYVLTHGEEKEE [I15L] | 1.89
DVAGNLDYKALSYVDTHGEEKEE [I15D] | 2.31
DVAGNLDYKALSYVYTHGEEKEE [I15Y] | 3.01
DVAGNLDYKALSYVFTHGEEKEE [I15F] | 2.49

Variant | protein stability index
DVAGNLDYKALSYVKTHGEEKEE [I15K] | 2.19
DVAGNLDYKALSYVNTHGEEKEE [I15N] | 2.63
DVAGNLDYKALSYVCTHGEEKEE [I15C] | 2.95
DVAGNLDYKALSYVPTHGEEKEE [I15P] | 2.16
DVAGNLDYKALSYVETHGEEKEE [I15E] | 3.02
DVAGNLDYKALSYVVTHGEEKEE [I15V] | 2.59
DVAGNLDYKALSYVQTHGEEKEE [I15Q] | 2.17
DVAGNLPYKALSYVITHGEEKEE [D7P] | 1.83
DVAGNLSYKALSYVITHGEEKEE [D7S] | 2.5
DVAGNLEYKALSYVITHGEEKEE [D7E] | 2.29
DVAGNLYYKALSYVITHGEEKEE [D7Y] | 2.1
DVAGNLMYKALSYVITHGEEKEE [D7M] | 2.11
DVAGNLIYKALSYVITHGEEKEE [D7I] | 1.44
DVAGNLAYKALSYVITHGEEKEE [D7A] | 1.89
DVAGNLFYKALSYVITHGEEKEE [D7F] | 1.04
DVAGNLRYKALSYVITHGEEKEE [D7R] | 1.69
DVAGNLDYKALSYVITSGEEKEE [H17S] | 3.05
DVAGNLDYKALSYVITTGEEKEE [H17T] | 2.12
DVAGNLDYKALSYVITMGEEKEE [H17M] | 1.64
DVAGNLDYKALSYVITPGEEKEE [H17P] | 1.83
DVAGNLDYKALSYVITEGEEKEE [H17E] | 2.25
DVAGNLDYKALSYVITLGEEKEE [H17L] | 2.23
DVAGNLDYKALSYVITAGEEKEE [H17A] | 1.39
DVAGNLDYKALSYVITWGEEKEE [H17W] | 1.79
DVAGNLDYKALSYVITQGEEKEE [H17Q] | 1.96

Variant | protein stability index
DVPGNLDYKALSYVITHGEEKEE [A3P] | 1.83
DVWGNLDYKALSYVITHGEEKEE [A3W] | 3.06
DVKGNLDYKALSYVITHGEEKEE [A3K] | 2.15
DVLGNLDYKALSYVITHGEEKEE [A3L] | 2.31
DVEGNLDYKALSYVITHGEEKEE [A3E] | 2.1
DVCGNLDYKALSYVITHGEEKEE [A3C] | 1.29
DVTGNLDYKALSYVITHGEEKEE [A3T] | 2.21
DVHGNLDYKALSYVITHGEEKEE [A3H] | 1.8
DVAGNLDYKALSYVITHGEKKEE [E20K] | 2.05
DVAGNLDYKALSYVITHGEVKEE [E20V] | 1.27
DVAGNLDYKALSYVITHGEHKEE [E20H] | 2.53
DVAGNLDYKALSYVITHGEIKEE [E20I] | 1.81
DVAGNLDYKALSYVITHGEDKEE [E20D] | 1.91
DVAGNLDYKALSYVITHGETKEE [E20T] | 2.31
DVAQNLDYKALSYVITHGEEKEE [G4Q] | 1.8
DVADNLDYKALSYVITHGEEKEE [G4D] | 1.82
DVAHNLDYKALSYVITHGEEKEE [G4H] | 2.09
DVANNLDYKALSYVITHGEEKEE [G4N] | 1.51
DVAANLDYKALSYVITHGEEKEE [G4A] | 2.02
DVACNLDYKALSYVITHGEEKEE [G4C] | 2.45
DVAINLDYKALSYVITHGEEKEE [G4I] | 1.46
DVAENLDYKALSYVITHGEEKEE [G4E] | 2.63
